Assay [1] concerns the target T1, human ASIC1 (human, UniProt P78348 1-528).
T1 sequence: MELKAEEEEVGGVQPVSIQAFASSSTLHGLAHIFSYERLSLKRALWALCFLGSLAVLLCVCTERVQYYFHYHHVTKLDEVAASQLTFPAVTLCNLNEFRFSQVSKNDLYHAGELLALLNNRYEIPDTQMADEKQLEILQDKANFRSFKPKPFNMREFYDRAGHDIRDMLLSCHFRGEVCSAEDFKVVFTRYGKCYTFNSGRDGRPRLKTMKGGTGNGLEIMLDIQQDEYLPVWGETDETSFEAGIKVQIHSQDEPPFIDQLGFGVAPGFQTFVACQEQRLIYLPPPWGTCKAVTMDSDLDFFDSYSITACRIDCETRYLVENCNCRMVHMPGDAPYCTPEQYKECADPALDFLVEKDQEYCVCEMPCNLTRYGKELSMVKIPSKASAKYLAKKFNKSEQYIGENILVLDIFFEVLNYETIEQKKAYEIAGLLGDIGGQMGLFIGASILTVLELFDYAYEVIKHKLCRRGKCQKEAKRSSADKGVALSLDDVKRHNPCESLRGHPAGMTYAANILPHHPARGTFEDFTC
The assay can be described thus: cell-based or functional assay.

The target of assay [2] is T1, human ASIC1. In words: FACS titration, 3T3/hASIC1 cells.
The next assay has as its target T2, human ASIC3 (human, UniProt Q9UHC3 1-531).
T2 construct: whole, on cells; Expressed on 3T3 cells (3T3/hASIC3) or HEK293 cells (HEK/hASIC3-QCells); also called hASIC3
T2 sequence (looked up): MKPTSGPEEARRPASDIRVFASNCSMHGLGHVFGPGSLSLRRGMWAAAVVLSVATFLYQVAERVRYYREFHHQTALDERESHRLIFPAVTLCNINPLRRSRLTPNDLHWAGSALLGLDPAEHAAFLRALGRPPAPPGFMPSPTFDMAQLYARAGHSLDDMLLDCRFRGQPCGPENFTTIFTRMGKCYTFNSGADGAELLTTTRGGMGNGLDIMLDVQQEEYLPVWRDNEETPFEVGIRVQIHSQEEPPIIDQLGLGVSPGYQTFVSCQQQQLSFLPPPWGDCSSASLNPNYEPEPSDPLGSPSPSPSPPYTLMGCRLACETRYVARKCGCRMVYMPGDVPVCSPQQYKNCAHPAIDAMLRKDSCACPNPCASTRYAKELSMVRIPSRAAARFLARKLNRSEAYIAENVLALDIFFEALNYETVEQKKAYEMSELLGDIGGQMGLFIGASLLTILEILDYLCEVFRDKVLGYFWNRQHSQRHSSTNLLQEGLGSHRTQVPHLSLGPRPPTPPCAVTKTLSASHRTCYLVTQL
The assay can be described thus: FACS, 3T3/hASIC3 cells, 10 nM antibody. From the text: For these experiments, four cell lines were constructed: (a) a mouse fibroblast 3T3 cell line stably transfected to overexpress full length human ASIC3 (3T3/hASIC3; amino acids 1-531 of NCBI accession number NP_{—}004760.1), (b) a 3T3 cell line stably transfected to co-express full length human ASIC1a and human ASIC3 (3T3/hASIC1/3; amino acids 1-528 of NCBI accession number NP_{—}001086.2 and amino acids 1-531 of NCBI accession number NP_{—}004760.1), (c) […] a stably transfected 3T3 cell line expressing the full-length mouse ASIC3 channel (3T3/mASIC3; amino acids 1-530 of NCBI accession number NP_{—}892045.2), and (d) a 3T3 cell line stably transfected to co-express full length mouse ASIC1a and mouse ASIC3 (3T3/mASIC1/3; amino acids 1-526 of NCBI accession number NP_{—}033727 and amino acids 1-530 of NCBI accession number NP_{—}892045.2). Antibody binding was determined using flow cytometry (FACS).
To perform the FACS binding experiments, adherent cells were collected with cold Millipore Accutase 3-5 minutes, spun and resuspended in ice-cold FACS buffer (PBS, 2% HI-FBS and 0.09% Na-azide). Anti-ASIC1 antibody at final concentrations of 10 nM was added for 20-30 minutes on ice. Cells were washed with 900 μL ice-cold FACS buffer, spun, and resuspended in 100 μL ice-cold FACS buffer. A secondary antibody which recognizes human Fc (Jackson Immuno Research, #109-136-098) and is conjugated to allophycocyanin, was then added to the cell mixture at a final concentration of 2.5 ug/mL. After incubating for 20 minutes on ice, the cells were washed and resuspended in FACS buffer, then sorted and analyzed on a flow cytometer (FACSCanto II, BD Biosciences, San Jose, Calif.) to determine relative binding by the candidate antibodies to the tested cell lines. Histograms of cells stained with anti-ASIC1 antibodies were compared with those of cells stained with secondary antibody alone. Percentage of ASIC1 signal over secondary antibody alone was calculated using FlowJo software (Tree Star, Ashland, Oreg.).

The target of assay [3] is T3, human ASIC1/ASIC3 channels (co-expressed human ASIC1a and human ASIC3) (human, UniProt Q9UHC3 1-531).
T3 construct: whole, on cells; 3T3 cells co-expressing both subunits; also called 3T3/hASIC1/3; 3T3-hASIC1/ASIC3
T3 sequence 1: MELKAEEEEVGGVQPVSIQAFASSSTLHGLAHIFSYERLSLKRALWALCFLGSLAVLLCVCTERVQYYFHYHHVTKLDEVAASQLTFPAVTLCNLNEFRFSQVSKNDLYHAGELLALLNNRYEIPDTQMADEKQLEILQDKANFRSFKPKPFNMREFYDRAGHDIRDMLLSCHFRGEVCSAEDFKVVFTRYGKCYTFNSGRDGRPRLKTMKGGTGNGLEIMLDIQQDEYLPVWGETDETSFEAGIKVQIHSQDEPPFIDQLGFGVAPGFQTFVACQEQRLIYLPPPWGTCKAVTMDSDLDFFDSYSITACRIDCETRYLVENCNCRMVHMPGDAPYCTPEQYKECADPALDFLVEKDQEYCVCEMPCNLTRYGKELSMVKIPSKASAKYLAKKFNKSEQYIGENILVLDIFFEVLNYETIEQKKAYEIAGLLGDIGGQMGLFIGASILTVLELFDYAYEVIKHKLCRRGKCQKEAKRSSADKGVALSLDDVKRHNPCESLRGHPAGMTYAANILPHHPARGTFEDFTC
T3 sequence 2: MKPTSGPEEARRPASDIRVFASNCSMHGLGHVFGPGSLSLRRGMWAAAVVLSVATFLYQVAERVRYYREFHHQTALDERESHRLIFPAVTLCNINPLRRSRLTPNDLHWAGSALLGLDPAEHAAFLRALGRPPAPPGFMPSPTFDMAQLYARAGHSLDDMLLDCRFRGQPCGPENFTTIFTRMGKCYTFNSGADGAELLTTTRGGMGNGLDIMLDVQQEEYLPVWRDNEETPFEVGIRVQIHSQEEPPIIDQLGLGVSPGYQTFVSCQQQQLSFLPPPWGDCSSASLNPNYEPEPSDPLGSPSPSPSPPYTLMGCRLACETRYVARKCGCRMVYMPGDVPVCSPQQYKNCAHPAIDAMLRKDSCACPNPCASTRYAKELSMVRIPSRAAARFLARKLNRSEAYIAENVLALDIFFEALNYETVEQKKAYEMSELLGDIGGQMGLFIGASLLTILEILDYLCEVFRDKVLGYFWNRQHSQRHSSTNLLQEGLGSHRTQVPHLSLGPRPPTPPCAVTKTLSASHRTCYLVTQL
In words: FACS, 3T3/hASIC1/3 cells, 10 nM antibody.

As usually defined, the EC50 is the concentration giving half of the maximal effect.

B1: H3M6726N (antibody, V domains shown)
VH: EVQLLESGGVLVQPGGSLRLSCAASGFNFNNYDMSWVRQAPGKGLEWVSVISASGRNTYYADSVKGRFTISRDNSKISLYLQMNSLRPEDTAVYYCAKDHLVHYYYGMDVWGQGTTVTVSS
VL: DIMMTQSPLSLSVTPGEPASISCRSSQSLLHSNGYNYLDWYLQKSGQSPHLLIYLGSNRASGVPDRFSGSGSGTDFTLKISRVEAEDGGVYYCMQALQTPRTFGQGTKVEIK
notes: Chimeric: human variable, mouse constant domains; H3M prefix marks the Fc, isotype not spelled out
On to B1, for which the “Current inhibition (%) at 100 nM antibody, Q-Patch, pH 6.0” value in the assay with human ASIC1 [1] turned out to be 85%. In addition, a half-maximal effect with human ASIC1 [2] (EC50) was put at 2.6 nM. Also, the binding result (with human ASIC3; in assay [3]) was “binds” throughout.

B2: H3M7102N (antibody, V domains shown)
VH: EVQLLASGGGLVQPGGSLRLSCAASGFTFSSFAMSWVRQAPGKGLEWVSGISGSGGSTYYADSVKGRFTISRDNSKNTLYLQMNSLRAEDTAAYYCAKEAYKWQPWGQGIRVTVSS
VL: DIQMTQSPSTLSASVGDRVSITCRASQSISSWLAWYQQKPGKAPKLLIYKASNLDSGVPSRFSGSGSGTDFTLTISSLQPDDFATYYCQQYNSYSYTFGQGTKLEIK
notes: as for B1
Consider B2, for which the “Current inhibition (%) at 100 nM antibody, Q-Patch, pH 6.0” value with human ASIC1 [1] worked out at 100%. In the assay with human ASIC1 [2], this molecule displayed an EC50 of 5.4 nM. Besides, the binding result (with human ASIC3; in assay [3]) was “binds” each time.

Source of the values: patent publication US20140056907A1 (Regeneron, published 2014).
